Test [1] has as its target T1, transforming growth factor-β activated kinase 1 (TAK1), endogenous, RAW 264.7 cells (mouse, UniProt Q62073 1-579).
T1 construct: Endogenous protein in cell lysate
T1 sequence (looked up): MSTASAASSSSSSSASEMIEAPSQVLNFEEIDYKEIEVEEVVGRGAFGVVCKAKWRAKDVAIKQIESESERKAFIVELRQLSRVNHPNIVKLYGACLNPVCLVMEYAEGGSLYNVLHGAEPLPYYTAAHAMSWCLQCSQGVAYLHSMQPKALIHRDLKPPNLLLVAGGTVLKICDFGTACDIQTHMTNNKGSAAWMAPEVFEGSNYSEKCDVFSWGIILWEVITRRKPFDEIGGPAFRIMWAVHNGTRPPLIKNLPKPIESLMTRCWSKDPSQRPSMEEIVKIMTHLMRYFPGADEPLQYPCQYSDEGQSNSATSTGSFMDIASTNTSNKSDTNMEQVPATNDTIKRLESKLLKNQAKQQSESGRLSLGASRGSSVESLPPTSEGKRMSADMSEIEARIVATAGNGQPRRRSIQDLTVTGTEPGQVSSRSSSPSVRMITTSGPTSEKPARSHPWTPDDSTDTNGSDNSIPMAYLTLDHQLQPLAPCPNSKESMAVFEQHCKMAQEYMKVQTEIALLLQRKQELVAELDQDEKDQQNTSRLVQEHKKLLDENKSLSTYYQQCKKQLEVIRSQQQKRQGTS
Description: co-IP, RAW 264.7 cells (FIG. 3H). As to the method:
(§1) FIG. 3. GPR120 internalization with β-arrestin2 mediates anti-inflammatory effects. (A) RAW 264.7 cells were transfected with siRNA as indicated and stimulated with or without 100 μM of DHA 1 hr prior to LPS (100 ng/ml) treatment for 10 min and then subjected to western blotting. […] (C) Phosphorylation of TAK1 and MKK4 in RAW 264.7 cells with or without siRNA transfection as indicated. (D) HEK 293 cells were co-transfected with HA-GPR120 and β-arrestin2.GFP to analyze GPR120 internalization after DHA stimulation for the indicated times. GPR120 (left column) and β-arrestin2 (middle column) were localized by confocal microscopy. (E) Co-immunoprecipitation between GPR120 and β-arrestin2 with DHA stimulation for 30 min in RAW 264.7 cells and, (F) HEK 293 cells (HA-GPR120 and (β-arrestin2*GFP), respectively. Lysate indicates 1/10 input in each experiment. Interaction between TAB1 and β-arrestin2 (G), and interaction between TAB1 and TAK1 (H) were detected by co-immunoprecipitation and the scanned bar graph quantitates the association in RAW 264.7 cells. (I) Schematic diagram of the β-arrestin2 and GPR120-mediated anti-inflammatory mechanism. The left half of the diagram indicate the DHA-mediated anti-inflammatory effect, and the right half of the diagram indicate the LPS- and TNF-α-induced inflammatory pathway. See also FIG. 9. […]

The target of test [2] is T2, β-arrestin2 (endogenous, RAW 264.7 cells) (mouse, UniProt Q91YI4 1-410).
T2 construct: Endogenous protein in cell lysate; also called βarr2
Description: co-IP, RAW 264.7 cells, DHA 30 min (FIG. 3E). As to the method: as §1

T2 sequence (Q91YI4 whole entry): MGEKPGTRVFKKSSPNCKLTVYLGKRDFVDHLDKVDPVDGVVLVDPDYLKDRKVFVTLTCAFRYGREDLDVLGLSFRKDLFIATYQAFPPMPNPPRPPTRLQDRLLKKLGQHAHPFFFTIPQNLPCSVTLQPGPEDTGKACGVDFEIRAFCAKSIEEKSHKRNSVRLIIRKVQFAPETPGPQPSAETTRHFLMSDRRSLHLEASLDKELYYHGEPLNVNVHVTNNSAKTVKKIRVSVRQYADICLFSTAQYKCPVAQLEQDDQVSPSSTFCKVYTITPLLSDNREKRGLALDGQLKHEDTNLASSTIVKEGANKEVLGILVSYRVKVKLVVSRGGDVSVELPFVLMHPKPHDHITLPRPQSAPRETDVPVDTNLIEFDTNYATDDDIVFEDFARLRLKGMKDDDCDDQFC

B1: TAK1 binding protein 1 (TAB1), endogenous, RAW 264.7 cells (other, mouse, UniProt Q8CF89 1-502, looked up)
chain: MAAQRRSLLQSEQQPSWTDDLPLCHLSGVGSASNRSYSADGKGTESHPPEDNWLKFRSENNCFLYGVFNGYDGNRVTNFVAQRLSAELLLGQLNTEHTEADVRRVLLQAFDVVERSFLESIDDALAEKASLQSQLPEGVPQHQLPPQYQKILERLKALEREISGGAMAVVAVLLNSKLYVANVGTNRALLCKSTVDGLQVTQLNMDHTTENEDELFRLSQLGLDAGKIKQMGVICGQESTRRIGDYKVKYGYTDIDLLSAAKSKPIIAEPEIHGAQPLDGVTGFLVLMSEGLYKALEAAHGPGQANQEIAAMIDTEFAKQTSLDAVAQAVVDRVKRIHSDTFASGGERAKFCPRHEDMTLLVRNFGYPLGEMSQPTPTPAPGGRVYPVSVPYSSAQSTSKTSVTLSLVMPSQGQMVNGSHSASTLDEATPTLTNQSPTLTLQSTNTHTQSSSSSSDGGLFRSRPAHSLPPGEDGRVEPYVDFAEFYRLWSVDHGEQSVMTAP
notes: Endogenous protein in cell lysate
B1: the binding result in test [1] is “binds”.

B2: GPR120 (endogenous, RAW 264.7 cells) (receptor, mouse, UniProt Q7TMA4 1-361, looked up)
chain: MSPECAQTTGPGPSHTLDQVNRTHFPFFSDVKGDHRLVLSVVETTVLGLIFVVSLLGNVCALVLVARRRRRGATASLVLNLFCADLLFTSAIPLVLVVRWTEAWLLGPVVCHLLFYVMTMSGSVTILTLAAVSLERMVCIVRLRRGLSGPGRRTQAALLAFIWGYSALAALPLCILFRVVPQRLPGGDQEIPICTLDWPNRIGEISWDVFFVTLNFLVPGLVIVISYSKILQITKASRKRLTLSLAYSESHQIRVSQQDYRLFRTLFLLMVSFFIMWSPIIITILLILIQNFRQDLVIWPSLFFWVVAFTFANSALNPILYNMSLFRNEWRKIFCCFFFPEKGAIFTDTSVRRNDLSVISS
notes: whole, on cells; also called ω-3 FA receptor/sensor
Consider B2, for which, in test [2], the binding result was “binds”.

The values are drawn from patent US20120295975A1 (University of California, published 2012).
